Reference: patent publication US20230071609A1 (Genentech, published 2023)

T1: untagged APOL1-G0, KIK variant, transiently expressed (COS cells) (human, UniProt O14791 29-398)
T1 construct: Origene SC109941 clone with E150K, M228I, R255K
T1 chain: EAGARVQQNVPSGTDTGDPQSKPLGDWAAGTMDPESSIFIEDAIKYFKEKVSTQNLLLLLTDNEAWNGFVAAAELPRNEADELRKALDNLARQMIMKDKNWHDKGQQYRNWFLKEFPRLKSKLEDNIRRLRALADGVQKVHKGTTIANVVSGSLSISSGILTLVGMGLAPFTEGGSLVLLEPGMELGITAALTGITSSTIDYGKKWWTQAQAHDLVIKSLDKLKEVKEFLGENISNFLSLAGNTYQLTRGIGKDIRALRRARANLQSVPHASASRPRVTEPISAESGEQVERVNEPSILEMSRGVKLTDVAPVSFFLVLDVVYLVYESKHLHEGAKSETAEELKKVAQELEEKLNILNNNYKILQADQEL

T2: circulating APOL1 in normal human serum (human, UniProt O14791 28-398)
T2 construct: mature; Serum of healthy volunteers; lipoprotein-associated; also called serum APOL1; HDL APOL1
T2 sequence (looked up): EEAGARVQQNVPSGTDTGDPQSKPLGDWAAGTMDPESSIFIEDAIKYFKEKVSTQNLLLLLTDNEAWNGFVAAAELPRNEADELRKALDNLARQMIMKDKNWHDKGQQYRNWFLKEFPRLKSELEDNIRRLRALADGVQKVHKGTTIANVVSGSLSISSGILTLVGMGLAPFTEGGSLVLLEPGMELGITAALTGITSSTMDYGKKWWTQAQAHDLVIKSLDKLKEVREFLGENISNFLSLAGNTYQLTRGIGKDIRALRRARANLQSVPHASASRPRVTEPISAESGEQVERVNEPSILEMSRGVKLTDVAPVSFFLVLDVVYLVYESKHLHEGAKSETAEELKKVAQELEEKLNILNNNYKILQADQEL


Experiments:
[1] = molecular target: T1, untagged APOL1-G0, KIK variant, …; test: immunofluorescence on transfected COS cells, 1 µg/ml; grade
[2] = molecular target: T2, circulating APOL1 in normal human serum; test: summary of the Examples: trypanolysis blocking as proxy for serum APOL1
Method: The trypanolysis assay used herein to text specificity of antibodies for serum APOL1 is as follows. Trypanosoma brucei brucei were obtained from ATCC and cultured in HMI-9 media containing IMDM (Genentech), heat-inactivated (56° C. for 30 min) FBS (Seradigm IXL9/06807/GEN), 1% serum plus (Sigma 14008C), HMI-9 (Genentech) and 1% hypoxanthine (Genentech). Trypanosome lysis was performed by treating 1×10⁵ Trypanosomes with serial dilutions of NHS or recombinant APOL1 for 16 h in a total of 100 μl. Live cell read out was done by the Alamar Blue assay as per the manufacturer's protocol, (Thermo Fisher, DAL1100). Briefly 10 μl of Alamar Blue was added to each well, incubated at 37° C. for 4 h. Red fluorescence, indicating live trypanosomes, was measured on a SpectraMax® fluorimeter powered by SoftMAX® PRO with excitation at 530 nm and emission 590 nm. For the antibody blocking assay, 1% normal human serum was preincubated with 1-10 μg/ml of anti-APOL1 antibody or media at room temperature for 20 minutes followed by addition of trypanosomes. After 16 h, the Alamar Blue assay was performed as above and background values for media only were subtracted and % blocking calculated by normalizing to no antibody control.
Trypanosoma brucei brucei were obtained under MTA from ATCC and cultured in HMI-9 media containing IMDM (Genentech), heat-inactivated (56° C. for 30 min) FBS (Seradigm IXL9/06807/GEN), 1% serum plus (Sigma 14008C), HMI-9 (Genentech) and 1% hypoxanthine (Genentech). Trypanosome lysis was performed by treating 1×10⁵ Trypanosomes with serial dilutions of NHS or recombinant APOL1 for 16 h in a total of 100 μl. Live cell read out was done by the Alamar Blue assay as per the manufacturer's protocol (30) (Thermo Fisher, DAL1100). Briefly 10 μl of Alamar Blue was added to each well, incubated at 37° C. for 4 h. Red fluorescence, indicating live trypanosomes, was measured on a SpectraMax fluorimeter powered by SoftMAX PRO with excitation at 530 nm and emission 590 nm. For the antibody blocking assay, 1% normal human serum was preincubated with 1-10 μg/ml of anti-APOL1 antibody or media at room temperature for 20 mins followed by addition of trypanosomes.

Row | Binder | binding result [1] | binding result [2]
1 | antibody 3.7D6 (antibody, V domains shown, Mouse mAb, cloned as murine IgG2a LALAPG; those versions are not written separately; also called PFD antibody 3.7D6) VH: QIQLVQSGPDLKKPGETVKISCRTSGYAFTNYGVNWVKQAPGKGLKWMGWINTNTGQTTYAEEFRGRFAISLETSASTAFLTISNLKNEDSATYFCARLIYDGDYISSDFWGQGTTLTVSS VL: DIQMTQSPDSLSASVGETVTITCGASENIYGALNWYQRKQGKSPQLLIYGATNLADGMSSRFSGSRSGRQYSLKISSLHPDDVATYYCQNALSMPYTFGGGTKLEIKR | binds | –
2 | antibody 3.6D12 (antibody, V domains shown, Mouse mAb (Method #3), cloned as murine IgG2a LALAPG; Early screens used hybridoma-purified antibody; also called mAb 3.6D12) VH: EVMLVESGGGLVRPGGSLKLSCTASGFTFSRCAMSWVRQTPEKRLEWVSAISRDSTYTYYSDSVKGRFTVSRDNAKNTLYLQMSSLRSEDTAMYYCARQIDDYYVDALDYWGQGTSVTVSS VL: DVQITQSPSYLAASPGETITINCRASKIISKYLAWYQEKPGKTIKLLIYSGFTLQSGIPSRFSGSGSGTDFTLTISSLEPEDFAMYYCQQHNEYPLTFGAGTKLEIKR | binds | binds
3 | antibody 3.1C1 (antibody, V domains shown, Mouse mAb, cloned as murine IgG2a LALAPG; not written separately; also called SRA-ID mAb 3.1C1) VH: QVQLQQSGPELVKPGASVRISCKASGYTFTNYFIHWVKQRPGQGLEWIGWINPGNLNTKYTEEFKGKATLTADKSSSTAYIQLNSLTSEDSAVYFCVNGNPFVYWGQGTLVTVSA VL: DIVMTQSPSSLTVIAGEKVTLNCKSSQSLLNSGNQKKYLTWLQQKPGQPPKLLIYWTSTRDSGVPDRFTGSGSGTDFTLTISSVQAEDLAVYYCQNDYSYPLTFGAGTKLEIKR | binds | binds
4 | antibody 4.12E5 (antibody, V domains shown, Mouse mAb, cloned as murine IgG2a LALAPG) VH: EVQLQQSGPELVKTGASVKISCKASGYSFTGYFMHWVKQSHGKSLEWIGYISCYNGASVYNQRFKGKATFTIDTSSSTAYMQFNSLTSEDSAVYYCARDVLRYPRYAVDYWGQGTSVTVSS VL: not shown | binds | binds

Other lines, results leading:

Row | binding result [1] | binding result [2] | Binder
5 | binds | binds | antibody 3.6E10 (antibody, V domains shown, Mouse mAb, cloned as murine IgG2a LALAPG) VH: QVQLQQSGAELAKPGASVKMSCKASGYIFTSYYLHWVKQRPGQGLEWIGYINPNTGYTEYTQNFKDRATLTADKSSSTAYMQLTSLTSEDSAVYFCVNGNPFVYWGQGTLVTVSA VL: DIVMTQSPSSLTVTTGEKVTMTCRSSQSLLNSGNQKNYLTWFQQKPGQPPKLLIYWTSTRYSGVPDRFTGSGSGTDFTLTISSVQAEDLAVYYCQNDYSYPLTFGAGTKLEIKR
6 | binds | binds | rabbit monoclonal antibody 5.17D12 (antibody, V domains shown, Rabbit mAb (Method #5), recombinant; also called rabmab 5.17D12) VH: QSLEESGGDLVKPGASLTLTCTASGFSFSSNYYMCWVRQAPGKGLEWIACVYVGSGGSTYYASWAKGRFTFSKTSSTTWTLQMTSLTAADTATYFCARDLSYAGDLWGPGTLVTVSS VL: DPVMTQTPASVSEPVGGTVTINCQASESISSYLAWYQQKPGQPPKLLIYGASNLASGVPSRFKGSGSGTEYTLTISDLECDDAATYYCQSAYYSNSGGHAFGGGTEVVVKG
7 | binds | binds | antibody 4.17A5 (antibody, V domains shown, Mouse mAb (Method #4), cloned as murine IgG2a LALAPG; also called mAb 4.17A5) VH: QVQLQQSGPELLKPGASVKISCKGSGYAFSNSWINWVKLRPGQGLEWIGRIYPGDGDTKYNGKFKGKATLTADKSSSTAHMQLRSLTSVDSAVYFCARFPFGKYEGPGAMDYWGQGTSVTVSS VL: DIQMTQTTSSLSASLGDRVTISCRASQDISSYLNWYQQKPDGTIKLLIYYTSRLHSGVPSRFSGSGSGTDFSLTISNLEQEDIATYFCQQGNTLPYTFGGGTKLEIKR
